According to PMC10593786 (Nature Communications, 2023):

B1: Myo6 ^YFPCBD (WT) (domain or fragment, mouse, UniProt Q64331 1032-1262, looked up)
chain: MALRRGPAVQATKAAAGTKKHDLSKWKYAELRDTINTSCDIELLAACREEFHRRLKVYHAWKSKNKKRNTETEQRAPKSVTDYDFAPFLNNSPQQNPAAQLPARQQEIDMKRQQRFFRIPFIRPADQYKDPQNKKKGWWYAHFDGPWIARQMELHPDKPPILLVAGKDDMEMCELNLEETGLTRKRGAEILPRQFEEIWERCGGIQYLQSAIESRQARPTYATAMLQNLLK
notes: The results call it CBD^1035-end, the methods give M1032; also called Myo6 CBD; CBD^1035-end; source: E. coli BL21 (DE3), purified (HisTrap IMAC, SEC); not shown: YFP, N-terminal, kept
B2: ^HisGIPC1 (His-rTEV-GIPC1 255-end) (domain or fragment, mouse, UniProt Q9Z0G0 255-333, looked up)
chain: DLPSAFEEKAIEKVDDLLESYMGIRDTELAATMVELGKDKRNPDELAEALDERLGDFAFPDEFVFDVWGAIGDAKVGRY
notes: mouse GIPC1 truncated in the N-terminus at aa D255 to keep only the GH2 domain; The ATPase assays used His-mNeonGreen-GIPC1 238-end, the MNT-1 assays ^mCherryMST-GIPC1 (239-end); also called GH2 domain; source: E. coli BL21 (DE3), purified (IMAC, SEC); not shown: His6, N-terminal, kept
B3: ^HisTOM1 (His-TOM1 207-492) (domain or fragment)
chain: DTPIAPTPEQIGKLRSELEMVSGNVRVMSEMLTELVPTQAEPADLELLQELNRTCRAMQQRVLELIPQIANEQLTEELLIVNDNLNNVFLRHERFERFRTGQTTKAPSEAEPAADLIDMGPDPAATGNLSSQLAGMNLGSSSVRAGLQSLEASGRLEDEFDMFALTRGSSLADQRKEVKYEAPQATDGLAGALDARQQSTGAIPVTQACLMEDIEQWLSTDVGNDAEEPKGVTSEEFDKFLEERAKAADRLPNLSSPSAEGPPGPPSGPAPRKKTQEKDDDMLFAL
notes: human TOM1 residues 207-end (207-492); The ATPase assays used His-YFP-TOM1 436-461, the MNT-1 assays ^mCherryMST-TOM1 (299-end); also called TOM1 207-end; source: E. coli BL21 (DE3), purified (IMAC, SEC); not shown: His6, N-terminal, kept
B4: Myo6 Ins2/IQ/3HB (aa 783-917) (domain or fragment, human, UniProt Q9UM54-5 783-917, looked up)
chain: RVNHWLTCSRWKKVQWCSLSVIKLKNKIKYRAEACIKMQKTIRMWLCKRRHKPRIDGLVKVGTLKKRLDKFNEVVSVLKDGKPEMNKQIKNLEISIDTLMAKIKSTMMTQEQIQKEYDALVKSSEELLSALQKKK
notes: human myosin VI, aa 783-917 (insert-2, IQ, 3-helix bundle), from the human FLMyo6 no-insert construct; source: E. coli BL21 (DE3), purified (IMAC, SEC); not shown: His6, N-terminal, cleaved
B5: Myo6 875-940 (N-terminal 6xHis-tag, pET14) (domain or fragment, mouse, UniProt Q64331 875-940, looked up)
chain: EISIDALMAKIKSTMMTREQIQKEYDALVKSSEDLLSALQKKKQQEEEAERLRRIQEEMEKERKRR
notes: mouse myosin VI aa 875-940: 2nd and 3rd helix of the 3HB and first part of the SAH; also called aa 875-940; 875-940 peptide; source: E. coli BL21 (DE3), purified (IMAC, SEC)
B6: Myo6 875-940 (his-rTEV-875-940, pProEX-HTb) (domain or fragment, mouse, UniProt Q64331 875-940, looked up)
chain: B5 chain
notes: mouse myosin VI aa 875-940; Made for crystallization; also called Myo6 875-940 WT; 875-940 peptide; source: E. coli BL21 (DE3), purified (IMAC, rTEV, SEC); not shown: His6, N-terminal, cleaved

Experiments:
[1] = molecular target: T1, Myo6 MD^Ins2/IQ/3HB (1-917) ( | human, UniProt Q29122 1-917; P0DP23 1-149); assay: MST; ^YFPCBD kept at 100 nM, Head sample titrated (16 two-fold dilutions), 25 °C, 20 mM Hepes pH 7.5, 50 mM NaCl, 2.5 mM MgCl2, 1 mM TCEP, 0.05% Tween-20, nucleotide-free (motor state NF); settings: both partners purified
T1 construct: also called Myo6-917; Myo6 Head fragment

[2] = molecular target: T2, Myo6 MD (1-789) (UniProt Q29122 1-789); assay: MST; ^YFPCBD kept at 100 nM, Head sample titrated (16 two-fold dilutions), 25 °C, 20 mM Hepes pH 7.5, 50 mM NaCl, 2.5 mM MgCl2, 1 mM TCEP, 0.05% Tween-20, with 2 mM MgADP and 2 mM Na3VO4 (motor state ADP.VO4); settings: both partners purified
T2 construct: myosin VI (Myo6) residues 1-789: Motor domain; also called Motor domain; source: Sf9/baculovirus, co-infected with human CaM virus, purified (anti-Flag resin)

[3] = molecular target: T1, Myo6 MD^Ins2/IQ/3HB (1-917); assay: as above; settings: both partners purified
[4] = molecular target: T3, Myo6 MD^Ins2 (2-816) ( | human, UniProt Q29122 2-816; P0DP23 1-149); assay: as above; settings: both partners purified
T3 construct: also called Tail-less construct

[5] = molecular target: B3; assay: MST; ^YFPCBD kept at 100 nM, Myo6 partner titrated (16 two-fold dilutions), 25 °C, 20 mM Bis-Tris pH 6.5, 100 mM KCl, 1 mM DTT, 0.05% Tween-20; settings: both partners purified
[6] = molecular target: B1; assay: as above; settings: both partners purified
[7] = molecular target: T4, FLMyo6 SI (SAHmimic) (human, UniProt Q9UM54-2 1-1262; P0DP23 1-149, Glu922 to Glu935 (EAERLRRIQEEMEK) replaced with EERKRREEEERKKREEE); assay: pull-down; anti-His pull-down on Ni2+ beads, His-partner and FLMyo6 SI (SAHmimic) 1/1 (10 µM), 1 µM extra calmodulin, 4 °C; which of the three buffers is not given; settings: both partners purified
T4 construct: also called FLMyo6 (SAHmimic)

[8] = molecular target: T5, full-length wild-type Myo6, small insert isoform (FLMyo6 SI (WT)) (human, UniProt Q9UM54-2 1-1262; P0DP23 1-149); assay: pull-down; settings: both partners purified
T5 construct: also called FLMyo6 (WT)

[9] = molecular target: B1; assay: MST; ^YFPCBD kept at 100 nM, Ins2/IQ/3HB titrated (16 two-fold dilutions), 25 °C, 20 mM Hepes pH 7.5, 50 mM NaCl, 2.5 mM MgCl2, 1 mM TCEP, 0.05% Tween-20; motor state '-' (no Motor domain); settings: both partners purified
[10] = molecular target: the molecule itself; assay: SEC-MALS; fragments of the 3HB/SAH junction on Superdex 200 10/300 Increase, 0.5 mL/min; titration; apparent KD, dimer to monomers
[11] = molecular target: the molecule itself; assay: SEC-MALS; injection of 50 µL at 10 mg/mL in 10 mM Tris-HCl pH 7.5, 50 mM NaCl, 5 mM NaN3, 0.5 mM TCEP; peak concentration by the in-line refractometer

T2 sequence (Q29122 1-789): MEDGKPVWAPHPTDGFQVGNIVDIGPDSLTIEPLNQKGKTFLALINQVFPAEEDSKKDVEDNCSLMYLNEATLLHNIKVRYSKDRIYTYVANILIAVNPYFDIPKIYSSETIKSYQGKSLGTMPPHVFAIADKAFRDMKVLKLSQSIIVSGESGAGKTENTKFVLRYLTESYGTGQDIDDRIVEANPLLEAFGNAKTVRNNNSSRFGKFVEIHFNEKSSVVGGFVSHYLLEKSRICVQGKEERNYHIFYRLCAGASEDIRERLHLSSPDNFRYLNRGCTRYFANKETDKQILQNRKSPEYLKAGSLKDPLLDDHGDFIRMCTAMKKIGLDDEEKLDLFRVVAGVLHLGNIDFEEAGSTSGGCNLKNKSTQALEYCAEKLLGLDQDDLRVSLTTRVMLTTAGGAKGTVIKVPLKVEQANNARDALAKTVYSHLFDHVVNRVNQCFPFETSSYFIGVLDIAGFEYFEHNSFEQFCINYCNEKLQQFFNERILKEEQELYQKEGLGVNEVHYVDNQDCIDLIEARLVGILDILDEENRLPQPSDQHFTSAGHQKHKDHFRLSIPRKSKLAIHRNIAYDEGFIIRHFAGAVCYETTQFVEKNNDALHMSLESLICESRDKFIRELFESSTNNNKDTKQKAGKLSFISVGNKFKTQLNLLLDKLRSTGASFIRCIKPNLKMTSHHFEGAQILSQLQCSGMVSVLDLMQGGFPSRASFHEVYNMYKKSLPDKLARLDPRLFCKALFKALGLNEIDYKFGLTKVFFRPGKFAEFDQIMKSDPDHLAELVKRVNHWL

Binder: B1
Kd [1]: 726 nM
Kd [2]: 3920 nM
Kd [3]: 144 nM
Kd [4]: 343 nM
binding result [5]: binds

Binder: B2
binding result [6]: binds

Binder: B3
binding result [7]: binds
binding result [8]: binds

Binder: B4
Kd [9]: 250 nM

Binder: B5
Kd [10]: ~19000 nM

Binder: B6
stoichiometry N [11]: 2
